Molecular target: Dog MCH receptor (dog)
Assay: cell-based or functional assay

Sequence of Dog MCH receptor (dog) (Q5IJ49 other isoform, or with tags, fused parts or gaps): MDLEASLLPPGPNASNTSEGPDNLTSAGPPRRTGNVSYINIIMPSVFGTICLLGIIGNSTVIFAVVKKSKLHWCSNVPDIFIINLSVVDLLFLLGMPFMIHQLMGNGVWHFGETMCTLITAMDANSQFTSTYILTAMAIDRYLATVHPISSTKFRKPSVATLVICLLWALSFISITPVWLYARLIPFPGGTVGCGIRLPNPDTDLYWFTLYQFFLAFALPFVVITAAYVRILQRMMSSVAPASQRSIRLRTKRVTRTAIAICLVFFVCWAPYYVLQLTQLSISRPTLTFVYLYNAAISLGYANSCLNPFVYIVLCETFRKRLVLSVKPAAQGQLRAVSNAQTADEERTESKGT

Melanin-concentrating hormone (MCH) (from UniProt P20382 147-165) (peptide)
EC50 for activation of the dog MCH receptor (aequorin bioluminescence, fractional response, in transfected 293-AEQ17 cells): 30 nM
